Measured values taken from paper PMC10907282 (Proceedings of the National Academy of Sciences of the …, 2024).

Target: purified SOS3 (Arabidopsis thaliana, UniProt O81223 1-222)
Test: other fluorescence titration

Sequence of purified SOS3 (O81223 whole entry): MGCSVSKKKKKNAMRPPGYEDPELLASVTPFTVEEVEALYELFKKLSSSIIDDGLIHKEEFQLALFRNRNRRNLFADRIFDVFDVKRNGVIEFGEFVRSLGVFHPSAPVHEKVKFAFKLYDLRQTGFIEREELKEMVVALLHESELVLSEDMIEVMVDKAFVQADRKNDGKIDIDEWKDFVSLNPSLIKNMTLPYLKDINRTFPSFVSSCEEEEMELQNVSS

KKRILEYTKYEMLNKALRAFQDLGD (peptide, UniProt Q9LKW9 460-484, looked up) [synthetic peptide spanning the S3BD of SOS1, residues K460 to D484]: binds.
